# According to patent US20160096894 (published 2016):
# B1: 2.14.3 (antibody, V domains shown)
# VH: GPGLVKPSETLSLTCTVSGGSISNYYWSWIRQPAGKGLEWIGRIYTSGSPNYNPSLKSRVTMSVDTSKNQFSLKLNSVTAADTAVYYCAVTIFGVVIIFDYWGQGTLVTVSS
# VL: SSLSASVGDRVTFTCRASQDIRRDLGWYQQKPGKAPKRLIYAASRLQSGVPSRFSGSGSGTEFTLTISSLQPEDFATYYCLQHNNYPRTFGQGTEVEIIR
# B2: 2.13.2 (antibody, V domains shown)
# VH: VQLLESGGGLVQPGGSLRLSCTASGFTFSSYAMNWVRQAPGKGLEWVSAISGSGGTTFYADSVKGRFTISRDNSRTTLYLQMNSLRAEDTAVYYCAKDLGWSDSYYYYYGMDVWGQGTTVTVSS
# VL: DIQMTQFPSSLSASVGDRVTITCRASQGIRNDLGWYQQKPGKAPKRLIYAASRLHRGVPSRFSGSGSGTEFTLTISSLQPEDFATYYCLQHNSYPCSFGQGTKLEIK
# B3: 4.9.2 (antibody, V domains shown)
# VH: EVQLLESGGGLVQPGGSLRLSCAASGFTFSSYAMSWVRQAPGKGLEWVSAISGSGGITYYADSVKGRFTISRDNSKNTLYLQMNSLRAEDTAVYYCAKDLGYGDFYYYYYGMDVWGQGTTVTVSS
# VL: DIQMTQSPSSLSASVGDRVTITCRASQGIRSDLGWFQQKPGKAPKRLIYAASKLHRGVPSRFSGSGSGTEFTLTISRLQPEDFATYYCLQHNSYPLTFGGGTKVEIK
# B4: 6.1.1 (antibody, V domains shown)
# VH: EVQLLESGGGLVQPGGSLRLSCAASGFTFSSYAMSWVRQAPGKGLEWVSGITGSGGSTYYADSVKGRFTISRDNSKNTLYLQMNSLRAEDTAVYYCAKDPGTTVIMSWFDPWGQGTLVTVSS
# VL: RATLSCRASQSVRGRYLAWYQQKPGQAPRLLIYGASSRATGIPDRFSGSGSGTDFTLTISRLEPEDFAVFYCQQYGSSPRTFGQGTKVEIK
# B5: 2.12.1 (antibody, V domains shown)
# VH: GRLGQAWRSLRLSCAASGFTFSDYYMSWIRQAPGKGLEWVSYISSSGSTRDYADSVKGRFTISRDNAKNSLYLQMNSLRAEDTAVYYCVRDGVETTFYYYYYGMDVWGQGTTVTVSS
# VL: ASVGDRVTFTCRASQDIRRDLGWYQQKPGKAPKRLIYAASRLQSGVPSRFSGSGSGTEFTLTISSLQPEDFATYYCLQHNNYPRTFGQGTEVEIIR
# B6: 4.17.3 (antibody, V domains shown)
# VH: PGLVKPSETLSLTCTVSGGSISSYYWSWIRQPPGKGLEWIGYIYYSGSTNYNPSLKSRVTISVDTSKNQFSLKLSSVTAADTAVYYCARTYSSSFYYYGMDVWGQGTTVTVSS
# VL: GDRVTITCRASQSISTFLNWYQQKPGKAPKLLIHVASSLQGGVPSRFSGSGSGTDFTLTISSLQPEDFATYYCQQSYNAPLTFGGGTKVEIK
# Assays:
# [1] = target: T1, IGF-IR extracellular domain (human, UniProt P08069); experiment: SPR
# IGF-IR = IGF-IR (human, UniProt P08069); experiment: competition, IGF-I blocking
# [2] = target: T1, IGF-IR extracellular domain; experiment: SPR, protocol 1
# [3] = target: T1, IGF-IR extracellular domain; experiment: SPR, protocol 2
Binder,Kd [1] [nM],IC50 (IGF-IR) [µg/mL],Kd [2] [nM],Kd [3] [nM]
B1,0.641,–,–,–
B2,–,0.18,3.5,1.53
B3,–,0.1,0.684,0.427
B4,0.565,–,–,–
B5,–,0.45,7.37,–
B6,13,–,–,–
